Data set [1] relates to γδ T cells. The data set is described as follows: Expansion of γδ T cell population using pamidronate in Yssel's medium (Example 4). The data set is classed as cell-based. Particulars: human PBMCs, stimulant pamidronate 5 μM, IL-2 100 U/mL, immobilized FN fragment, day 14. On the procedure:
The expansion of a γδ T cell population was carried out in the same manner as in Example 2-(1), provided that as a basal medium for culture, a medium prepared originally by the applicant having the same composition as an Yssel's medium (hereinafter referred to as “Yssel's medium”) was used in place of IMDM, and that on the fifth day from the initiation of culture, 1 mL of an Yssel's medium containing 10% (v/v) human AB serum was added to each well, to dilute the cell suspension.
The ratio of γδ T cells was analyzed according to flow cytometry for PBMCs prepared in Example 1-(1) and the cells on the fourteenth day from the initiation of culture prepared in Example 4-(1), in the same manner as in Example 1-(4). As a result, the ratio of the γδ T cells was 8.9% for the PBMCs, and the ratio was from 89.7 to 94.3% for the cells on the fourteenth day from the initiation of culture.
The number of live cells was counted according to trypan blue staining method for the cells on the fourteenth day from the initiation of culture prepared in Example 4-(1). The expansion fold of γδ T cells was calculated in comparison of the counted number with the number of γδ T cells at the initiation of culture, in the same manner as in Example 1-(5).

The subject of another data set is Daudi cells. The data set is described as follows: Cytotoxic activity of cultured γδ T cell population, Calcein-AM release. The data set is classed as cell-based, human. Particulars: γδ T cells expanded 14 days with pamidronate on immobilized FN fragment; target cells Daudi; E/T 30; 4 hours. Here is the method: The cytotoxic activity was determined for the cells on the fourteenth day from the initiation of culture prepared in Example 3-(1). The cytotoxic activity was evaluated by a method for assaying cytotoxic activity using Calcein-AM [Lichtenfels R. et al., J. Immunol. Methods 172(2), 227-239 (1994)]. […]
The cells on the fourteenth day from the initiation of culture prepared in Example 3-(1) were diluted with an RPMI 1640 medium containing 5% (v/v) human AB serum, 0.1 mM NEAA mixture, 1 mM sodium pyruvate (all manufactured by Cambrex), 2 mM L-glutamine, 10 μg/mL streptomycin sulfate (hereinafter referred to as “5HRPMI”) as effector cells, so as to have a concentration of 3×10^6 cells/mL. […] Upon the addition, the ratio of the effector cells (E) to the Calcein-labeled target cells (T) is expressed as an E/T ratio, and the measurements were made at an E/T ratio of 30. […] Thereafter, 100 μL of the culture supernatant was collected from each well, and the amount of Calcein released into the culture supernatant was determined with a fluorescence plate reader (Mithras LB 940, manufactured by BERTHOLD TECHNOLOGIES) (excited at 485 nm/measured at 535 nm). The “cytotoxic activity (%)” was calculated in accordance with the following formula.
Cytotoxic Activity (%)={(Measured Value in Each Well−Minimum Released Amount)/(Maximum Released Amount−Minimum Released Amount)}×100 […]

The subject of data set [2] is γδ T cells. The data set is described as follows: Expansion of γδ T cell population using zoledronate (Example 5). Particulars: human PBMCs; RPMI 1640, then 10HRPMI+L-Gln; stimulant zoledronate 1 μM for 48 hours; IL-2 100 U/mL; immobilized FN fragment; day 14. It counts as cell-based. On the procedure: The immobilization of an FN fragment was carried out in the same manner as in Example 1-(2), provided that a 6-well cell culture plate was used as a plate to be immobilized, and that an ACD-A solution (pH 5.0) containing H296-H296 (final concentration: 3 μg/mL) was added in a volume of 1.2 mL/well each.
PBMCs prepared in Example 1-(1) were suspended in an RPMI 1640 medium containing 0.25% (w/v) HSA so as to have a concentration of 1×10^6 cells/mL, to prepare a cell suspension. Thereafter, the above cells were added to a plate to which nothing was immobilized, or the plate immobilized with H296-H296 prepared in Example 5-(1), in a volume of 5 mL/well each. […]
The ratio of γδ T cell was analyzed according to flow cytometry for PBMCs prepared in Example 1-(1) and the cells on the fourteenth day from the initiation of culture prepared in Example 5-(2), in the same manner as in Example 1-(4). […]
The number of live cells was counted according to trypan blue staining method for the cells on the fourteenth day from the initiation of culture prepared in Example 5-(2). The expansion fold of γδ T cells was calculated in comparison of the counted number with the number of γδ T cells at the initiation of culture, in the same manner as in Example 1-(5).

Turning to “CH-296: polypeptide comprising a cell binding domain, a heparin binding domain and a CS-1 domain of fibronectin (SEQ ID NO: 13)”, in the data set on γδ T cells [1], the “Expansion Fold of γδ T Cells (Folds) Fourteenth Day of Culture” value was “×101.4 Folds”. In addition, the “Cytotoxic Activity (%)” value in the data set on Daudi cells is 33.23%.

B1: H296-H296: modified fibronectin fragment in which two H-296's are connected to each other (SEQ ID NO: 22) (protein)
chain: AIPAPTDLKFTQVTPTSLSAQWTPPNVQLTGYRVRVTPKEKTGPMKEINLAPDSSSVVVSGLMVATKYEVSVYALKDTLTSRPAQGVVTTLENVSPPRRARVTDATETTITISWRTKTETITGFQVDAVPANGQTPIQRTIKPDVRSYTITGLQPGTDYKIYLYTLNDNARSSPVVIDASTAIDAPSNLRFLATTPNSLLVSWQPPRARITGYIIKYEKPGSPPREVVPRPRPGVTEATITGLEPGTEYTIYVIALKNNQKSEPLIGRKKTDELPQLVTLPHPNLHGPEILDVPSTAMAIPAPTDLKFTQVTPTSLSAQWTPPNVQLTGYRVRVTPKEKTGPMKEINLAPDSSSVVVSGLMVATKYEVSVYALKDTLTSRPAQGVVTTLENVSPPRRARVTDATETTITISWRTKTETITGFQVDAVPANGQTPIQRTIKPDVRSYTITGLQPGTDYKIYLYTLNDNARSSPVVIDASTAIDAPSNLRFLATTPNSLLVSWQPPRARITGYIIKYEKPGSPPREVVPRPRPGVTEATITGLEPGTEYTIYVIALKNNQKSEPLIGRKKTDELPQLVTLPHPNLHGPEILDVPST
modifications: Fibronectin fragment named H296-H296
Take B1: the “Expansion Fold of γδ T Cells (Folds) Fourteenth Day of Culture” value in the data set with γδ T cells [2] is recorded as “×107.5 Folds”.
